Measured values reported in article PMC6768651, “A ubiquitin-like domain controls protein kinase D dimerization and activation by trans-autophosphorylation” (The Journal of Biological Chemistry, 2019).

B1: DKF-1 ULD–C1a (DKF-1^1–151) [C. elegans] / itself (parent)
chain: MDGSQGSTDYGDHVVLRYGGTREMVPLIRHEQMLDMLMERARQIVQGFGNLDTRNMYLFRHEYNSPTLLYPITSASQITSGSILEIILVDRTEAAVIPHVVEPESYMRPTFCDFCGEMLTGLMRQGVKCKNCNGNFHKRCSNAARNNCGAP
B2: DKF-1 ULD (DKF-1^1–94) [C. elegans] / itself (parent)
chain: MDGSQGSTDYGDHVVLRYGGTREMVPLIRHEQMLDMLMERARQIVQGFGNLDTRNMYLFRHEYNSPTLLYPITSASQITSGSILEIILVDRTEA

Experiments:
Assay in all cases: SEC-MALS (static light scattering)
Settings in all cases: with itself
itself [1] = variants of: B1
itself [2] = variants of: B1; remark: listed apart in the source
itself [3] = variants of: B2; remark: listed apart in the source
itself [4] = variants of: B2; remark: listed apart in the source

Variant	screen value (itself [1])	screen value (itself [2]) [kDa]	screen value (itself [3])	screen value (itself [4]) [kDa]
chain 1 F59E	1.09	18.7	–	–
chain 1 F59E	–	–	1.04	11.3
